This is an account of results in the supplement of paper PMC7125110.

The labels stand for the following.
B1: glmS ribozyme (parent)
chain: AUAAAAGCGCCAGAACUACAGAAAUGUAGUUGACGAGGAGGAGGUUUAUCGAAUUUUCGGCGGAUGCCUCCAAA

Common to all, as to conditions: with glucosamine-6-phosphate
Variants of B1 are the subject of series [1]. The experiment in a line: self-cleavage kobs at 40 uM GlcN6P; higher = faster cleavage; RNA array. Summed up:
(§1)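 Tracking of barcoded ribozyme variants used a hybridised Cy3 probe at 37 °C, after in situ transcription by E. coli RNA polymerase on sequenced MiSeq chips. The flowed solution held 40 μM to 10 mM glucosamine-6-phosphate in HEPES/KCl/Mg(OAc)2 buffer, and imaging ran over ~14 h. kobs was taken from exponential decay fits of normalised per-tile medians, and kcat and KM from weighted Michaelis–Menten fits.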

Series [2] covers variants of B1. The experiment in a line: self-cleavage kobs at 640 uM GlcN6P; higher = faster cleavage; RNA array. In a few lines: as §1
In series [3] the parent is B1. The experiment in a line: self-cleavage kobs at 10000 uM GlcN6P; higher = faster cleavage; RNA array. In a few lines: as §1
In series [4] the parent is B1. The experiment in a line: self-cleavage kobs at 2500 uM GlcN6P; higher = faster cleavage; RNA array. Summed up: as §1
In series [5] the parent is B1. The experiment in a line: self-cleavage kobs at 160 uM GlcN6P; higher = faster cleavage; RNA array. In a few lines: as §1

± gives the standard error. This sample holds only a part of the variants without activity.

As to G41U U49A, the “self-cleavage kobs at 40 uM GlcN6P” value in series [1] was less than 1e-05 s⁻¹. The “self-cleavage kobs at 640 uM GlcN6P” value in series [2] was less than 1e-05 s⁻¹. Moreover, the “self-cleavage kobs at 10000 uM GlcN6P” value in series [3] is less than 1e-05 s⁻¹.

Take G51C G60U A64U: the “self-cleavage kobs at 40 uM GlcN6P” value in series [1] was less than 1e-05 s⁻¹.

On to C11A A39C G62C A64U C67G, for which, in series [1], the “self-cleavage kobs at 40 uM GlcN6P” value is less than 1e-05 s⁻¹.

Consider A14G G32A U49A, for which the “self-cleavage kobs at 40 uM GlcN6P” value in series [1] is less than 1e-05 s⁻¹.

On to G59C U65G, for which, in series [1], the “self-cleavage kobs at 40 uM GlcN6P” value is less than 1e-05 s⁻¹. Also, the “self-cleavage kobs at 640 uM GlcN6P” value in series [2] is less than 1e-05 s⁻¹. In series [3], the “self-cleavage kobs at 10000 uM GlcN6P” value is less than 1e-05 s⁻¹.

Consider C16A G43C A48G C67U, for which the “self-cleavage kobs at 40 uM GlcN6P” value in series [1] is less than 1e-05 s⁻¹. Moreover, the “self-cleavage kobs at 10000 uM GlcN6P” value in series [3] is less than 1e-05 s⁻¹.

With G37C G62C, in series [1], the “self-cleavage kobs at 40 uM GlcN6P” value is less than 1e-05 s⁻¹. Besides, the “self-cleavage kobs at 640 uM GlcN6P” value in series [2] is less than 1e-05 s⁻¹. Besides, in series [3], the “self-cleavage kobs at 10000 uM GlcN6P” value is less than 1e-05 s⁻¹.

In the case of U56C C61G, in series [1], the “self-cleavage kobs at 40 uM GlcN6P” value is less than 1e-05 s⁻¹. In addition, in series [4], the “self-cleavage kobs at 2500 uM GlcN6P” value was less than 1e-05 s⁻¹. Also, the “self-cleavage kobs at 10000 uM GlcN6P” value in series [3] is less than 1e-05 s⁻¹.

C8A C11U A15U C50G U56A G63A: the “self-cleavage kobs at 40 uM GlcN6P” value in series [1] was 5.94e-05 ± 2e-05 s⁻¹. The “self-cleavage kobs at 2500 uM GlcN6P” value in series [4] was found to be 0.000104 ± 5.1e-05 s⁻¹. Also, the “self-cleavage kobs at 10000 uM GlcN6P” value in series [3] amounted to 0.00011 ± 2.4e-05 s⁻¹.

Regarding A36C G41U G51A G60U, the “self-cleavage kobs at 40 uM GlcN6P” value in series [1] was less than 1e-05 s⁻¹. The “self-cleavage kobs at 640 uM GlcN6P” value in series [2] was less than 1e-05 s⁻¹. Further, the “self-cleavage kobs at 2500 uM GlcN6P” value in series [4] was less than 1e-05 s⁻¹.

As to U49C G59A C67G, the “self-cleavage kobs at 40 uM GlcN6P” value in series [1] was less than 1e-05 s⁻¹. Also, the “self-cleavage kobs at 160 uM GlcN6P” value in series [5] is less than 1e-05 s⁻¹. The “self-cleavage kobs at 640 uM GlcN6P” value in series [2] is less than 1e-05 s⁻¹. In series [3], the “self-cleavage kobs at 10000 uM GlcN6P” value is less than 1e-05 s⁻¹.

For the variant G41A G51C, in series [1], the “self-cleavage kobs at 40 uM GlcN6P” value is less than 1e-05 s⁻¹. For the same variant, the “self-cleavage kobs at 160 uM GlcN6P” value in series [5] was less than 1e-05 s⁻¹. Also, the “self-cleavage kobs at 640 uM GlcN6P” value in series [2] is less than 1e-05 s⁻¹.

With G7U U49A A52C G60C C61U, in series [1], the “self-cleavage kobs at 40 uM GlcN6P” value was less than 1e-05 s⁻¹. Besides, the “self-cleavage kobs at 640 uM GlcN6P” value in series [2] was less than 1e-05 s⁻¹. In addition, in series [4], the “self-cleavage kobs at 2500 uM GlcN6P” value is less than 1e-05 s⁻¹. Also, the “self-cleavage kobs at 10000 uM GlcN6P” value in series [3] is less than 1e-05 s⁻¹.

Turning to G13C U31A G40U, the “self-cleavage kobs at 40 uM GlcN6P” value in series [1] was less than 1e-05 s⁻¹. Besides, in series [2], the “self-cleavage kobs at 640 uM GlcN6P” value is less than 1e-05 s⁻¹.

On to C8G C71A, for which the “self-cleavage kobs at 40 uM GlcN6P” value in series [1] is less than 1e-05 s⁻¹. Further, the “self-cleavage kobs at 160 uM GlcN6P” value in series [5] was less than 1e-05 s⁻¹. Besides, the “self-cleavage kobs at 640 uM GlcN6P” value in series [2] is less than 1e-05 s⁻¹. Also, the “self-cleavage kobs at 2500 uM GlcN6P” value in series [4] is less than 1e-05 s⁻¹.

For the variant C10G A15G U30G G63U, the “self-cleavage kobs at 40 uM GlcN6P” value in series [1] was less than 1e-05 s⁻¹. Moreover, the “self-cleavage kobs at 640 uM GlcN6P” value in series [2] is less than 1e-05 s⁻¹. The “self-cleavage kobs at 10000 uM GlcN6P” value in series [3] was less than 1e-05 s⁻¹.

With G32A G43U C67U, the “self-cleavage kobs at 40 uM GlcN6P” value in series [1] was less than 1e-05 s⁻¹. In series [4], the “self-cleavage kobs at 2500 uM GlcN6P” value was less than 1e-05 s⁻¹.

For G13A C16G U65G, the “self-cleavage kobs at 40 uM GlcN6P” value in series [1] was less than 1e-05 s⁻¹. Besides, the “self-cleavage kobs at 10000 uM GlcN6P” value in series [3] turned out to be 3.8e-05 ± 1.6e-05 s⁻¹.

On to C50G C58A C67A, for which the “self-cleavage kobs at 40 uM GlcN6P” value in series [1] stood at 7.83e-05 ± 1.2e-05 s⁻¹. For the same variant, the “self-cleavage kobs at 10000 uM GlcN6P” value in series [3] was found to be 9.18e-05 ± 1.4e-05 s⁻¹.

On to G43U A64U, for which the “self-cleavage kobs at 40 uM GlcN6P” value in series [1] is less than 1e-05 s⁻¹. The “self-cleavage kobs at 640 uM GlcN6P” value in series [2] was less than 1e-05 s⁻¹. Further, in series [4], the “self-cleavage kobs at 2500 uM GlcN6P” value is less than 1e-05 s⁻¹. Further, the “self-cleavage kobs at 10000 uM GlcN6P” value in series [3] was less than 1e-05 s⁻¹.

As to C8U G38U A39C C58A, the “self-cleavage kobs at 40 uM GlcN6P” value in series [1] was less than 1e-05 s⁻¹.

As to C11G U55G, the “self-cleavage kobs at 40 uM GlcN6P” value in series [1] was less than 1e-05 s⁻¹. Besides, the “self-cleavage kobs at 160 uM GlcN6P” value in series [5] is less than 1e-05 s⁻¹.

Regarding C8A G13U G41C U55C U65A U69G, the “self-cleavage kobs at 40 uM GlcN6P” value in series [1] was less than 1e-05 s⁻¹.

Consider G35A A53C, for which the “self-cleavage kobs at 40 uM GlcN6P” value in series [1] is less than 1e-05 s⁻¹. Further, the “self-cleavage kobs at 160 uM GlcN6P” value in series [5] is less than 1e-05 s⁻¹. For the same variant, the “self-cleavage kobs at 640 uM GlcN6P” value in series [2] was less than 1e-05 s⁻¹. In addition, the “self-cleavage kobs at 10000 uM GlcN6P” value in series [3] is less than 1e-05 s⁻¹.

Consider G13U G59U, for which, in series [1], the “self-cleavage kobs at 40 uM GlcN6P” value is less than 1e-05 s⁻¹. Besides, in series [5], the “self-cleavage kobs at 160 uM GlcN6P” value was less than 1e-05 s⁻¹. Also, the “self-cleavage kobs at 640 uM GlcN6P” value in series [2] was less than 1e-05 s⁻¹. For the same variant, the “self-cleavage kobs at 10000 uM GlcN6P” value in series [3] is less than 1e-05 s⁻¹.
